Results published in the DeepSol protein solubility set.

Test: soluble on expression in E. coli; label from the status in PepcDB or PDB records

| Sequence | soluble on expression in E. coli |
| --- | --- |
| MRGSHHHHHHTDPALRAIPQISQAPGVVQLVLNFLQELEQQGFTGDTATSYADRLTMSTDNSIYQLLPDAVVFPRSTADVALIARLAAQERYSSLIFTPRGGGTGTNGQALNQGIIVDMSRHMNRIIEINPEEGWVRVEAGVIKDQLNQYLKPFGYFFAPELSTSNRATLGGMINTDASGQGSLVYGKTSDHVLGVRAVLLGGDILDTQPLPVELAETLGKSNTTIGRIYNTVYQRCRQQRQLIIDNFPKLNRFLTGYDLRHVFNDEMTEFDLTRILTGSEGTLAFITEARLDITRLPKVRRLVNVKYDSFDSALRNAPFMVEARALSVETVDSKVLNLAREDIVWHSVSELITDVPDQEMLGLNIVEFAGDDEALIDERVNALCARLDELIASHQAGVIGWQVCRELAGVERIYAMRKKAVGLLGNAKGAAKPIPFAEDTCVPPEHLADYIAEFRALLDSHGLSYGMFGHVDAGVLHVRPALDMCDPQQEILMKQISDDVVALTAKYGGLLWGEHGKGFRAEYSPAFFGEELFAELRKVKAAFDPHNRLNPGKICPPEGLDAPMMKVDAVKRGTFDRQIPIAVRQQWRGAMECNGNGLCFNFDARSPMCPSMKITQNRIHSPKGRATLVREWLRLLADRGVDPLKLEQELPESGVSLRTLIARTRNSWHANKGEYDFSHEVKEAMSGCLACKACSTQCPIKIDVPEFRSRFLQLYHTRYLRPLRDHLVATVESYAPLMARAPKTFNFFINQPLVRKLSEKHIGMVDLPLLSVPSLQQQMVGHRSANMTLEQLESLNAEQKARTVLVVQDPFTSYYDAQVVADFVRLVEKLGFQPVLLPFSPNGKAQHIKGFLNRFAKTAKKTADFLNRMAKLGMPMVGVDPALVLCYRDEYKLALGEERGEFNVLLANEWLASALESQPVATVSGESWYFFGHCTEVTALPGAPAQWAAIFARFGAKLENVSVGCCGMAGTYGHEAKNHENSLGIYELSWHQAMQRLPRNRCLATGYSCRSQVKRVEGTGVRHPVQALLEIIKGLCGR | soluble |
| MIIKPAGDSAFLISFGDEISEEINDRVHSLAKAIEKESPEWLVELVPAYSSLLVIYDPLKASYEEVESYLKRISAREVERIKGKTIEIPVAYGGEFGPDIEFVAQYNGLSVDDVIEIHSKPLYRVYFLGFLPGFAYLGGMDERIATPRLEKPRLKVPAGSVGIAGKQTGWYAIESPGGWRIIGRIPLRTFNPGKVPPSIVLPGDYVKFVPIDEKEFWEIYGREWE | soluble |
| MGHHHHHHSHMAVASTSTSDGMLTLDLIQEEDPSPEEPTSCAESFRVDLDKSVAQLAGSRRRADSDRIQPSADRASSLSRPWEKTDKGATYTPQAPKKLTPTEKGRCASLEEILSQRDAASARTLQLRAEEPPTPALPNPGQLSRIQDLVARKLEETQELLAEVQGLGDGKRKAKDPPRSPPDSESEQLLLETERLLGEASSNWSQAKRVLQEVRELRDLYRQMDLQTPDSHLRQTTPHSQYRKSLM | not soluble |
| MKAESSNESFIIGQRVHSLNDSRRVGTVKYVGDVEGYSGTWIGVDWDQDGDGKHNGSVNGVFYFNGRSQSSASFVRSQNLSRGITLLQALELRYRTISTKDEEDEMYVLSAGNRRVSIQLLGGDKIQDKLSRFEELTSASLSYLGVSSLGVSSDLGSILPNLKLLDLTGNLISDWEEIGALCEQLPALTTLNLSCNSLSSDIKSLPQLKNIRVLVLNNSGLSWTQVEILRRSLPGIEELHLMGNMISTITSTSSSDDQAFNSLRLLNLDDNCISDWSEVLKLSQLPCLEQLYLNKNKLSRIFQSVNGTESSEKGSDPFPSLSCLLLGANNIGDLASVDALNGFPQLVDIRLSENPISDPVRGGVPRFVLVARLTKVQVLNGSEVRAREKKDSEIRYVRMVMSKLNDKSGEIELLHPRFYELKKLHGIEDERASAENSGPKNIASGLISITLKCVGPSMGEKPHLTKKLPGSITVGKLKILSENFFKLKSIKPRLFLQEEGSPFPTALDDETATLLDVGICDGSTLLVDEES | soluble |
| MEDNRLVINRHRATQVLFQLVNISTQLSYQFFCKDSVLLLRIVQKIQSNSWLTSCCARKTVTTLRIKTQPANNKH | not soluble |
| LNSVGQGEFGGAPFKRFLRGTRIVSGGKLKRMTREKAKQVTVAGVPMPRDAEPRHLLVNGATGTGKSVLLRELAYTGLLRGDRMVIVDPNGDMLSKFGRDKDIILNPYDQRTKGWSFFNEIRNDYDWQRYALSVVPRGKTDEAEEWASYGRLLLRETAKKLALIGTPSMRELFHWTTIATFDDLRGFLEGTLAESLFAGSNEASKALTSARFVLSDKLPEHVTMPDGDFSIRSWLEDPNGGNLFITWREDMGPALRPLISAWVDVVCTSILSLPEEPKRRLWLFIDELASLEKLASLADALTKGRKAGLRVVAGLQSTSQLDDVYGVKEAQTLRASFRSLVVLGGSRTDPKTNEDMSLSLGEHEVERDRYSKNTGKHHSTGRALERVRERVVMPAEIANLPDLTAYVGFAGNRPIAKVPLEIKQFANRQPAFVEGTI | soluble |
| MRVCLLASGSKGNSLFIETGESRILIDAGLSARELVRRLSLIGVDAAQLDALFISHEHTDHVRGAGVLARKYRIPVHVSYPTHREISGQIHGVYVTEFESGYSFTFRDLLVDPFRITHDACDPVGFTVESREGKVGIATDLGTATRLVADKLAGCRALVVESNHDEGMLMDGPYPWHLKQRIKSRHGHLSNNDTAALLAEVINPGLEGLFLAHLSEVNNDPVMARQVTASFLAGQNICSPRLVVGDQYRPSELLNILEHHHHHH | not soluble |
| MAHHHHHHMEHVNANEKNGYLASEKNELTKNKVEEHTYDYDYVVIGGGPGGMASAKEAAAHGARVLLFDYVKPSSQGTKWGIGGTCVNVGCVPKKLMHYAGHMGSIFKLDSKAYGWKFDNLKHDWKKLVTTVQSHIRSLNFSYMTGLRSSKVKYINGLAKLKDKNTVSYYLKGDLSKEETVTGKYILIATGCRPHIPDDVEGAKELSITSDDIFSLKKDPGKTLVVGASYVALECSGFLNSLGYDVTVAVRSIVLRGFDQQCAVKVKLYMEEQGVMFKNGILPKKLTKMDDKILVEFSDKTSELYDTVLYAIGRKGDIDGLNLESLNMNVNKSNNKIIADHLSCTNIPSIFAVGDVAENVPELAPVAIKAGEILARRLFKDSDEIMDYSYIPTSIYTPIEYGACGYSEEKAYELYGKSNVEVFLQEFNNLEISAVHRQKHIRAQKDEYDLDVSSTCLAKLVCLKNEDNRVIGFHYVGPNAGEVTQGMALALRLKVKKKDFDNCIGIHPTDAESFMNLFVTISSGLSYAAKG | not soluble |
| MGSDKIHHHHHHACSLQQYQTKIVANNNYGIYQSLTRKGPVRQMGVTGTFKYSHFQASSVKKIKHNTYWYVLINGHKAGWVNQSAFARNKISVAKRVSLVKNPYYDFNVKDAINYVTDSSGSVVDLDKVHVSQNTVSSAKAGIHNITYTYGKGKAHSLIRVRNDQYEGIVNANKKPQMGKSGVTWFKHFKTSGNWGKGSSYAPETKPHVLKNGNFKLKTVFYQPATLSQGDSKLGVVGPLPEGLAVSDGRMYATMYDRPTRTHAHIVSYQLNQIPNRYVMQKLPWLPWPEFARLSATIKVSPLIKLGHGQAISTSKKYIYVIANNHLLRNNPESEEIMQISKNDLQIKKIWTFKIWDQKSEYGRYVHNAVFLNDHKFIAVYHSSTMNRFEYWEVTRHGNSWYPKEIGATKGEFMRNNSPVQGIAYDKHKKQIYLAFNDYLFKLNRKGRVIENGHFNTGREFEGICVDNKTFYAELAQRPELLKQKLK | not soluble |
| MGSDKIHHHHHHMLKLDKIQANKIVEKLMADIPYNINIMDERGKIIASGDSARIGERHRGAERAINERKNIEIYKDTSLEKKGTNEPIILNNHILGVVGISGEPDEVRKFTKLVRSIVLLLTEELNTQQEREKKKKQKNQFIQHLMHVDSSYSEALKLEALELYNLQLDDQNHCVLTKDKRLLSSYYPGHEIFEWENCYLVITSEPPQITKPVTEYLVISSEKATIQQMVQEAQNTYLLLSFLQLEKAKFYQAEDFFIQGIFNFPFHIELDFFETIQTIYDEYYETVIFFANHNLNINETSQVLHIHRNTLNYRLKRIHELTGMDPKVWQDFWKLFYYFAYCFKERFEK | not soluble |
| MGSDKIHHHHHHMRDLLQRPDLFSINTATLGYKTPLPAIIDACAARGIGAIAPWRRELQGEDLQQITRQLAASNMSVSGLCRSTYYTAPTLAERKLAIDDNRRALDDAAVLNAACYMQVVGGLPTGTKDLYEAREQVKQGIRQLLPHSKDVGVPIALEPLHPMTAADRSCLCTLRQALDWCDELDPDGEFGLGVAVDVYHVWWDPDLASQILRAGKRILAFHVSDWLMPTTDLVNDRGMPGDGVINIPSIRRLVENAGFNGAIELEIFSPYWWQKDINSTGNDSNLLIVFYVQIMPDDLVMQLHRF | not soluble |
| MRQPEDGNIRLWRYMDFSKFVALISSKSLFLNRVDRFTDPYEGHFSSLNNRLRNSIYEAKYAGSEIDPHKVASAIFDFNSFSRQWTYVNCWHANKYESAAMWDLYAKTEEAIAIETDYNSLAAVLPSEAQLGFVEYIDFDTEWMPENNATYPYLHKRKSFEHEKEVRIIVQEIPRAKSGVGFDREAVNDKHGISLDIDLNQLIKSIHVSPTAPKWLVDLTDTVSKTFGIDAHVKQSDLYKAPIK | soluble |
| MAHHHHHHMYNILQFVLKAYSIQNEEPSCDVENVKDLLNDQLCYVLYNITNYSSKYQWILILWAPEKNSILIDDIHENKEKKNNFIHIVDKEIYKYNNASKKINKLLYYSFKQNFLDIIFNNYDIPLFEINNFVMLEKCIHDCNNKYYNYTNCPTLLNREKTKPKNDSFDIYNQYNLQKYYLLNIQLRSINNIIILNESSLCHDMKRLLEEPNICLNLFYIDVHNYKIISTHLNIDNIEQVHSIIKENKIFYVIYKVLDTYTFFYICNEICTNTKQKFLYSFFKPYLLEYLKKIKNIPIFLSIELSKTKHLIRFINADLKKNKNKNSN | soluble |
| MTAVETKKQYLTVFKEDGIAEIHLHINKSNSYDLEFYKEFNAAIDDIRFDPDIKVVIVMSDVPKFFSAGADINFLRSADPRFKTQFCLFCNETLDKIARSPQVYIACLEGHTVGGGLEMALACDLRFMGDEAGKIGLPEVSLGVLAGTGGTQRLARLIGYSRALDMNITGETITPQEALEIGLVNRVFPQAETRERTREYARKLANSATYAVSNIKLAIMNGKEMPLNVAIRYEGELQNLLFRSEDAKEGLSAFLEKRQPNWKGI | soluble |
| MTYSGLNLNQDKATKPQTVQIVRQGEATLYWFLLIHYRFRRERRETQSLLMTRNTLKFIPFWSYKHITYAIFLYSRLPENSGQEYLTQRKAEKATKNNLHLSRLVSPTLGVQTIQSFRLPLFVYKINF | not soluble |
| MRKGCFGLVSLVLLLLVGCRSHPEIPVNDEQSLVMESSLLAAGISAEKPFLSTSDIQPSASSTLYNERQEPVTVHYRFYWYDARGLEMHPLERPRSVTIPAHSAVTLYGSANFLGAHKVRLYLYLLEHHHHHH | soluble |
| MAHHHHHHMMGHLTLPQLCLNVQHGKYSKKTQRPPTLSQRCVTTLISSRISRKLSPADCPTYTSTLLSAEGSTTENLKYNHRGPTTTFSATASNPIIFPN | not soluble |
| MTAQTPRPYPSPYGRGNWYADTVTDVPASPPLDGDVAAEVCIIGAGFTGLGAALALGSRAVVLEAGRIGCAASGRNGGQVHTGQRRDQAWLEKTVGRDDALALWRLAEEARAHFASLVTAIDCDWRPGMIHARHKPGGEAEDADYLALMADRYGYDQLELIGETALAHELGTDVYHGGLADHGGGHVHPLKLAQGMAAQARAAGAVIHENTRADAWRREGGKIVVETGGGRVTCDQLILSGDGLLNRMAGPAQARVMPINNFIAVTAPLGALADEIIRSNAAVSDSRFVVNYFRKTPDGRLLFGGGENYRPGFPHDIAGLVRKNLAKIYPRLADVEITHAWGGTLGITFSRMPFVGEVAQGVRVAAGYSGQGVMLAPYVGKLLAEAALGETGPVDLLSRLPTPPFPGGRLLRWPLTVAGLSWYALRDRLLEHHHHHH | not soluble |
